Experimental data as given in patent publication US20030073824A1, “DNA encoding methymycin and pikromycin” (priority 1999, published 2003).

Tests used:
[1] = biological target: A. eutrophus PHA synthase (Cupriavidus necator, UniProt P23608); conditions: read-out: apparent Km (substrate concentration at half-optimal velocity); enzyme 0.95 mg/ml; 40 or 200 μl assay volumes; FIG. 10
[2] = Storage stability of PHA synthase purified from insect cells; type: physicochemical
Description: Fraction collection tubes were prepared by addition of […] of 100 mM EDTA to provide a metalloprotease inhibitor at 1 mM immediately after HA chromatography. PHA synthase was eluted in a broad peak between 110-180 mM KPi. Fractions (3 ml) containing significant PHA synthase activity were pooled and stored at 0° C. until the entire soluble fraction had been run through the chromatographic process. Pooled fractions then were concentrated at 4° C. by use of a Centriprep-30 concentrator (Amicon) to 3.8 mg/ml. Aliquots (0.5 ml) were either flash frozen and stored in liquid N2 or glycerol was added to a final concentration of 50% and samples (1.9 mg/ml) were stored at −20° C.
PHA synthase purified from insect cells appears to be relatively stable.

[3] = biological target: the molecule itself; test: size exclusion chromatography of native protein (forms of about 100-160 kDa and 50-80 kDa)

## 3-hydroxybutyrate CoA [HBCoA]
[1]
  Km: 2500 µM

B1: A. eutrophus PHA synthase (phbC gene product) produced in insect cells with a baculovirus vector (enzyme, Alcaligenes eutrophus, UniProt P23608 7-589, looked up)
chain: AAASTQEGKSQPFKVTPGPFDPATWLEWSRQWQGTEGNGHAAASGIPGLDALAGVKIAPAQLGDIQQRYMKDFSALWQAMAEGKAEATGPLHDRRFAGDAWRTNLPYRFAAAFYLLNARALTELADAVEADAKTRQRIRFAISQWVDAMSPANFLATNPEAQRLLIESGGESLRAGVRNMMEDLTRGKISQTDESAFEVGRNVAVTEGAVVFENEYFQLLQYKPLTDKVHARPLLMVPPCINKYYILDLQPESSLVRHVVEQGHTVFLVSWRNPDASMAGSTWDDYIEHAAIRAIEVARDISGQDKINVLGFCVGGTIVSTALAVLAARGEHPAASVTLLTTLLDFADTGILDVFVDEGHVQLREATLGGGAGAPCALLRGLELANTFSFLRPNDLVWNYVVDNYLKGNTPVPFDLLFWNGDATNLPGPWYCWYLRHTYLQNELKVPGKLTVCGVPVDLASIDVPTYIYGSREDHIVPWTAAYASTALLANKLRFVLGASGHIAGVINPPAKNKRSHWTNDALPESPQQWLAGAIEHHGSWWPDWTAWLAGQAGAKRAAPANYGNARYRAIEPAPGRYVKAKA
notes: Denatured on SDS-PAGE for the Western blots; Size exclusion chromatography used the native purified protein; also called PHB synthase; 64 kDa protein
[2]; after 7 weeks stored at −20° C. in the presence of 50% glycerol
  synthase activity remained: approximately 75%
[2]; after 7 weeks stored in liquid N2
  synthase activity remained: approximately 50%
[3]
  binding result: binds
